Square brackets hold non-standard residues; d marks the D form. Ends that are not written are not given here. pT = C[C@@H](OP(=O)(O)O)[C@H](N)C(=O)O; pS = N[C@@H](COP(=O)(O)O)C(=O)O
B1: BRCA2 1108-1126 peptide (peptide)
peptide: WKAEITELSTILEESGSQFE
notes: tryptophan at the N-terminus, outside the stated BRCA2 limits; human BRCA2, residues 1108-1126 with the LxxIxE motif; The added W probably serves the A280 concentration measurement; also called BRCA2^1108-1126 WT; source: synthetic peptide (Peptide 2.0 Inc.)
B2: BRCA2 1105-1129 peptide (peptide)
peptide: PSQKAEITELSTILEESGSQFEFTQW
notes: human BRCA2, residues 1105-1129; tryptophan at the C-terminus, outside the stated BRCA2 limits; also called BRCA2^1105-1129 WT; source: synthetic peptide (Peptide 2.0 Inc.)
B3: BRCA2 1105-1129 S1106R peptide (peptide)
peptide: PRQKAEITELSTILEESGSQFEFTQW
notes: human BRCA2, residues 1105-1129 with the missense variant S1106R reported in individuals (ClinVar); tryptophan at the C-terminus, outside the stated BRCA2 limits; also called c.3318 C > G; source: synthetic peptide (Peptide 2.0 Inc.)
B4: BRCA2 1105-1129 T1116P peptide (peptide)
peptide: PSQKAEITELSPILEESGSQFEFTQW
notes: human BRCA2, residues 1105-1129 with the missense variant T1116P reported in individuals (ClinVar); tryptophan at the C-terminus, outside the stated BRCA2 limits; also called c.3346 A > C; source: synthetic peptide (Peptide 2.0 Inc.)
B5: BRCA2 1105-1129 T1128I peptide (peptide)
peptide: PSQKAEITELSTILEESGSQFEFIQW
notes: human BRCA2, residues 1105-1129 with the missense variant T1128I reported in individuals (ClinVar); tryptophan at the C-terminus, outside the stated BRCA2 limits; also called c.3383 C > T; source: synthetic peptide (Peptide 2.0 Inc.)
B6: BRCA2 1113-1129 peptide (peptide)
peptide: WELSTILEESGSQFEFTQ
notes: tryptophan at the N-terminus, outside the stated BRCA2 limits; human BRCA2, residues 1113-1129; source: synthetic peptide (Peptide 2.0 Inc.)
B7: BRCA2 1113-1129 pS1123 peptide (peptide)
peptide: WELSTILEESG[pS]QFEFTQ
notes: tryptophan at the N-terminus, outside the stated BRCA2 limits; human BRCA2, residues 1113-1129, S1123 phosphorylated; source: synthetic peptide (Peptide 2.0 Inc.)
B8: BRCA2 1113-1129 pT1128 peptide (peptide)
peptide: WELSTILEESGSQFEF[pT]Q
notes: tryptophan at the N-terminus, outside the stated BRCA2 limits; human BRCA2, residues 1113-1129, T1128 phosphorylated; source: synthetic peptide (Peptide 2.0 Inc.)
B9: BRCA2 1113-1129 pS1123, pT1128 peptide (peptide)
peptide: WELSTILEESG[pS]QFEF[pT]Q
notes: tryptophan at the N-terminus, outside the stated BRCA2 limits; human BRCA2, residues 1113-1129, S1123 and T1128 phosphorylated; also called double phosphorylated peptide; source: synthetic peptide (Peptide 2.0 Inc.)
B10: BRCA2 1105-1129 3DQ peptide (peptide)
peptide: PDQKAEITELSTILEESGDQFEFDQW
notes: human BRCA2, residues 1105-1129 with the three SQ/TQ sites changed to DQ (phosphomimetic); tryptophan at the C-terminus, outside the stated BRCA2 limits; source: synthetic peptide (Peptide 2.0 Inc.)

Tests used:
B56α [1] = target: T1, B56α (Homo sapiens, UniProt Q15172); test: isothermal titration calorimetry; settings: reference: unphosphorylated peptide
T1 sequence (Q15172 whole entry): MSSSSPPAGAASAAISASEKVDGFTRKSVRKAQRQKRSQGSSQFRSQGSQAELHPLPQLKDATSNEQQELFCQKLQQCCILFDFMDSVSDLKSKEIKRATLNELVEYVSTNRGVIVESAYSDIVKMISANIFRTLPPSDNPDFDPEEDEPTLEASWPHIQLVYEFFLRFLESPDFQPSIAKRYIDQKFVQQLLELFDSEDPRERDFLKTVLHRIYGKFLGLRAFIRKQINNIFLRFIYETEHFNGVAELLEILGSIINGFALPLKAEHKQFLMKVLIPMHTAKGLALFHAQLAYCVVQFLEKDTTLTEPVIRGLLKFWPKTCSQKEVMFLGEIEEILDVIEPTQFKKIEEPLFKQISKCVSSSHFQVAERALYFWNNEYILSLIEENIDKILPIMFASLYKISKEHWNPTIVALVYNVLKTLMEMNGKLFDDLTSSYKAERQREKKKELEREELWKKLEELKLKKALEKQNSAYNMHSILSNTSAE

[2] = test system: BRCA2 pT1104/pS1106 and pT1128; test: Western blot of BRCA2 phosphorylation in BRCA2 immunoprecipitates; format: cell-based, human; settings: U2OS Flp-In T-REx, S-phase, released 1 h, 2 μM CPT for 1 h
Procedure: For immunoprecipitations of endogenous BRCA2, U2OS Flp-In T-REx cells were synchronized to S-phase as described above, released for 1 h, and treated for 1 h with 2 μM CPT in presence or absence of 25 μM KU55933 (ATM kinase inhibitor) and 5 μM AZ20 (ATR kinase inhibitor). Cells were lysed in RIPA buffer, and proteins were immunoprecipitated on BRCA2 antibody-conjugated (Millipore Cat# OP95, RRID:AB_2067762) Rec-protein G Sepharose 4B beads (Invitrogen) for 1 h at 4 °C and washed in RIPA buffer prior to elution.
All buffers were supplemented with 1 mM DTT, Complete protease inhibitor cocktail (Roche), and PhosSTOP phosphatase inhibitor cocktail (Roche). For λ phosphatase treatment experiments, immunoprecipitants on beads were washed in buffer without phosphatase inhibitor and incubated with λ phosphatase (Sigma–Aldrich) in the applied buffer for 20 min at 30 °C before elution. Immunoprecipitants were eluted in 2× NuPage LDS sample buffer (Invitrogen). Whole-cell extracts and immunoprecipitations were analyzed by SDS-PAGE and western blotting or mass spectrometry analysis. For western blotting, samples were boiled for 5 min in NuPage LDS sample buffer and run on NuPage Bis-Tris 4–12% protein gels (Invitrogen), and proteins were transferred to PVDF membranes (Immobilon-FL, Merck). […] Quantification of western blots were carried out in ImageStudioLite (version 5.2.5., LI-COR). […]

U2OS Flp-In T-REx cells [3] = test: Colony formation assay: CPT sensitivity; format: cell-based, human
Procedure: For transient protein expression, cells were transfected with Lipofectamine 2000 (Invitrogen) and the plasmid of interest and incubated for 48 h unless otherwise stated. For BRCA2 knockdown, cells were transfected twice with 10 nM Silencer Select BRCA2 s2084 siRNA and 10 nM Silencer Select BRCA2 s2085 siRNA (Ambion) using Lipofectamine RNAiMAX (Invitrogen) 24 and 48 h before the experiment. A luciferase oligo ([NT], Sigma) was used for control (Ctrl). U2OS Flp-In T-REx parental cells or stably expressing siRNA-resistant venus-MBP-BRCA2 constructs were transfected with Ctrl or BRCA2 siRNA as described above. […] Reseeding was performed by trypsinizing the cells, dissolving into growth medium, and counting the number of cells using the Scepter Cell Counter (Merck), followed by seeding a known number of cells into six-well plates containing growth medium. After 11 days, the cells were fixed and stained in 0.5% methylviolet, 25% methanol. The plates were scanned on a GelCount (Oxford Optronix), and the number of colonies were quantified using the GelCount software (version 1.3.04). The plating efficiency (%) for each well was calculated as the number of colonies divided by the number of cells seeded times 100. The surviving fraction for each dose of drug was calculated by normalizing the plating efficiency to that of the unperturbed condition. […]

B56α [4] = target: T1, B56α; test: Isothermal titration calorimetry (ITC) of BRCA2 peptides binding to B56α; design: His; made in house; host or cells: E. coli BL21 Rosetta2 (DE3) R3 T1; settings: ITC at 25 °C; 50 mM sodium phosphate pH 7.5, 150 mM NaCl, 0.5 mM TCEP; peptide titrated into B56α; single-site model; error = standard error of the fitting; performed once
Procedure: Both recombinant B56α and synthetic BRCA2 peptides were extensively dialyzed prior to ITC experiments against the ITC buffer (50 mM sodium phosphate pH 7.5, 150 mM NaCl, 0.5 mM TCEP). All experiments were performed on a MicroCal Auto-iTC200 (Malvern Panalytical) instrument at 25 °C (Auto-iTC200 version 1.1.1.0, iTC200 version 1.26.4, Origin version 7.0552 SR4). Both peptide and B56α concentrations were determined using a spectrophotometer by measuring the absorbance at 280 nm and applying values for the extinction coefficients as computed from the corresponding sequences by the ProtParam program (http://web.expasy.org/protparam/). The BRCA2 peptides were loaded into the syringe and titrated into the calorimetric cell containing B56α. The reference cell was filled with distilled water. Control experiments with the peptides injected in the sample cell filled with buffer were carried out under the same experimental conditions. […] The titration sequence consisted of a single 0.4 μl injection followed by 19 injections, 2 μl each, with 150 s spacing between injections to ensure that the thermal power returns to the baseline before the next injection. The stirring speed was 750 rpm. […] Data were analysed with MicroCal PEAQ-ITC analysis software (version 1.1.0.1262., Malvern Panalytical).

U2OS Flp-In T-REx cells [5] = test: Colony formation assay: Olaparib sensitivity; format: cell-based, human
Procedure: For transient protein expression, cells were transfected with Lipofectamine 2000 (Invitrogen) and the plasmid of interest and incubated for 48 h unless otherwise stated. For BRCA2 knockdown, cells were transfected twice with 10 nM Silencer Select BRCA2 s2084 siRNA and 10 nM Silencer Select BRCA2 s2085 siRNA (Ambion) using Lipofectamine RNAiMAX (Invitrogen) 24 and 48 h before the experiment. A luciferase oligo ([NT], Sigma) was used for control (Ctrl). U2OS Flp-In T-REx parental cells or stably expressing siRNA-resistant venus-MBP-BRCA2 constructs were transfected with Ctrl or BRCA2 siRNA as described above. […] Reseeding was performed by trypsinizing the cells, dissolving into growth medium, and counting the number of cells using the Scepter Cell Counter (Merck), followed by seeding a known number of cells into six-well plates containing growth medium. After 11 days, the cells were fixed and stained in 0.5% methylviolet, 25% methanol. The plates were scanned on a GelCount (Oxford Optronix), and the number of colonies were quantified using the GelCount software (version 1.3.04). The plating efficiency (%) for each well was calculated as the number of colonies divided by the number of cells seeded times 100. The surviving fraction for each dose of drug was calculated by normalizing the plating efficiency to that of the unperturbed condition. The plating efficiency data of Figs. 2, 3, and Supplementary Fig. 3 is derived from the unperturbed condition of the MMC sensitivity dataset, and the plating efficiency data of Fig. 4 is derived from the unperturbed condition of the Olaparib sensitivity dataset. Graphs were constructed in PRISM, and one-way ANOVA analyses with Dunnett's multiple comparison tests were performed comparing the mean of each condition to the siBRCA2 + WT condition. Exact p values are provided in the source data.

U2OS Flp-In T-REx cells [6] = test: Colony formation assay: MMC sensitivity; format: cell-based, human
Procedure: For transient protein expression, cells were transfected with Lipofectamine 2000 (Invitrogen) and the plasmid of interest and incubated for 48 h unless otherwise stated. For BRCA2 knockdown, cells were transfected twice with 10 nM Silencer Select BRCA2 s2084 siRNA and 10 nM Silencer Select BRCA2 s2085 siRNA (Ambion) using Lipofectamine RNAiMAX (Invitrogen) 24 and 48 h before the experiment. A luciferase oligo (5′-[sequence]dTdT-3′, Sigma) was used for control (Ctrl).
U2OS Flp-In T-REx parental cells or stably expressing siRNA-resistant venus-MBP-BRCA2 constructs were transfected with Ctrl or BRCA2 siRNA as described above. Then, cells were either treated with 0, 3, or 10 ng/mL Mitomycin C for 24 h followed by reseeding into normal growth medium or reseeded directly and either treated for 24 h with 0, 5, or 15 nM CPT or continuously maintained in medium containing 0, 5.6, 16.7, or 50 nM Olaparib. […] The plates were scanned on a GelCount (Oxford Optronix), and the number of colonies were quantified using the GelCount software (version 1.3.04). The plating efficiency (%) for each well was calculated as the number of colonies divided by the number of cells seeded times 100. The surviving fraction for each dose of drug was calculated by normalizing the plating efficiency to that of the unperturbed condition. […]

His-tagged B56α = target: T2, His-tagged B56α (UniProt Q15172 1-486); test: ITC; BRCA2 peptide in the syringe titrated into B56α in the cell; 25 °C; 50 mM sodium phosphate pH 7.5, 150 mM NaCl, 0.5 mM TCEP; single-site model; settings: both partners purified
T2 construct: source: E. coli BL21 Rosetta2 (DE3) R3 T1, purified (Ni column, Superdex 200)
T2 sequence (Q15172 whole entry): as above

[7] = BRCA2 depletion (siBRCA2) vs siCtrl
[8] = cells expressing BRCA2 3AQ compared to BRCA2 WT

Molecule	Kd (His-tagged B56α) [µM]	stoichiometry N (His-tagged B56α)	further results
BRCA2 (from UniProt P51587) doubly phosphorylated pS1123/pT1128 peptide	–	–	fold change (B56α [1]; sites S1123,T1128): stronger
BRCA2 (from UniProt P51587) pT1128 peptide (printed once as S1128)	–	–	fold change (B56α [1]; sites T1128): stronger
CC[C@@]1(O)C(=O)OCc2c1cc1n(c2=O)Cc2cc3ccccc3nc2-1 [Camptothecin, camptothecin]	–	–	phosphorylation of BRCA2 T1104/S1106 and T1128 [2]: stimulated; CPT sensitivity (U2OS Flp-In T-REx cells [3]; [7]): hypersensitivity; CPT sensitivity (U2OS Flp-In T-REx cells [3]; [8]): hypersensitivity
WKAEITEASTALEESGSQFE [BRCA2^1108-1126 2A, synthetic BRCA2 peptide 1108-1126 with L1114A-I1117A]	–	–	KD (B56α [4]): No binding
BRCA2 (from UniProt P51587) pS1106 peptide	–	–	binding against the reference (B56α [1]; sites S1106): weaker
O=C(c1cc(Cc2n[nH]c(=O)c3ccccc23)ccc1F)N1CCN(C(=O)C2CC2)CC1 [Olaparib]	–	–	Olaparib sensitivity (U2OS Flp-In T-REx cells [5]; [7]): hypersensitivity; Olaparib sensitivity (U2OS Flp-In T-REx cells [5]; [8]): hypersensitivity; Olaparib sensitivity (U2OS Flp-In T-REx cells [5]; cells expressing BRCA2 S1106R, T1116P or T1128I compared to BRCA2 WT): mild sensitivity
CO[C@@]12[C@H](COC(N)=O)C3=C(C(=O)C(C)=C(N)C3=O)N1C[C@@H]1N[C@@H]12 [MMC, Mitomycin C]	–	–	MMC sensitivity (U2OS Flp-In T-REx cells [6]; [7]): hypersensitivity; MMC sensitivity (U2OS Flp-In T-REx cells [6]; cells expressing BRCA2 3AQ or 3DQ compared to BRCA2 WT): hypersensitivity
BRCA2 (from UniProt P51587) pS1123 peptide	–	–	fold change (B56α [1]; sites S1123): stronger
B1	5.17	1.02	–
B2	7.76	0.99	–
B3	2.93	0.95	–
B4	6.92	0.85	–
B5	7.43	1.01	–
B6	3.82	1.01	–
B7	0.77	0.92	–
B8	1.38	0.94	–
B9	0.48	0.91	–
B10	3.75	0.86	–
